T1: FcγRIIb, extracellular domain with C-terminal His tag (human, UniProt P31994 43-217)
T1 construct: extracellular domain; also called 2b; FcgRIIb; not shown: His tag at the C terminus
T1 sequence (looked up): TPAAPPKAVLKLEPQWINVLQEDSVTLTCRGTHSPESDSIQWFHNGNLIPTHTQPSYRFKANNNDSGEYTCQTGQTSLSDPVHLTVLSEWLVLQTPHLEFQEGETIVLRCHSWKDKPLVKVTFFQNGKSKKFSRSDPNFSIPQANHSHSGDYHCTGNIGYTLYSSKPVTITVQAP

T2: FcγRIIa H (FcγRIIa type H, His at position 131), extracellular domain with C-terminal His tag (human, UniProt P12318 34-217)
T2 construct: extracellular domain; also called 2aH; FcgRIIa H; not shown: His tag at the C terminus
T2 sequence (looked up): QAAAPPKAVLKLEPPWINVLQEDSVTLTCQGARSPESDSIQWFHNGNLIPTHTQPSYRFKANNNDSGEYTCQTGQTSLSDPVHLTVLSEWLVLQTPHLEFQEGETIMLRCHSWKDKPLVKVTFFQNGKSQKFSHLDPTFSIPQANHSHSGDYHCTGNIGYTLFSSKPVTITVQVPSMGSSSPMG

T3: FcγRIIb (extracellular domain, C-terminal His tag) (human, UniProt P31994 43-217)
T3 construct: extracellular domain; also called FcgRIIb; 2b; not shown: His tag attached to the C terminus
T3 sequence (looked up): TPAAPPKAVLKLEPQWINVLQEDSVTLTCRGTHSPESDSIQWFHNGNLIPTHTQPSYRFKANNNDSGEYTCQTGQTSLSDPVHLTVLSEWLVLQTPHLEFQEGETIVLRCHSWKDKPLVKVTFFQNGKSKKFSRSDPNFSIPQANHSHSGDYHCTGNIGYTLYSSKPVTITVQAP

T4: FcγRIIa R (extracellular domain, C-terminal His tag) (human, UniProt P12318 34-217)
T4 construct: extracellular domain; also called FcgRIIa R type; 2aR; not shown: His tag attached to the C terminus
T4 sequence (looked up): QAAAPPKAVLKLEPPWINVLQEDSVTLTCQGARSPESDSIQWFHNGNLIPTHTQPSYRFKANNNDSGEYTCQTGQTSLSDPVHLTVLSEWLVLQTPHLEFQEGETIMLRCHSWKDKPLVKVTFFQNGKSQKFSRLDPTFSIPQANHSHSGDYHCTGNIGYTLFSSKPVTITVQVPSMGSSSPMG


Legend:
[1] = molecular target: T1, FcγRIIb, extracellular domain with …; assay: SPR (Biacore), antibody captured on antigen-peptide chip, FcγR as analyte; GpH7-A5/GpH7-B3/GpL16-k0 = 100
Description: (§1) The heterodimerized antibodies He Abs in which one of the H chains was introduced with an alteration were assayed for their binding activities to each activating FcγR and inhibitory FcγR according to the method described in Example 4. […] The activating FcγRs in FIGS. 26, 27, 28, and 29 are FcγRIa, FcγRIIa (R), FcγRIIa (H), and FcγRIIIa, respectively.
(§2) Analysis of interaction between objective antibody and the FcγR was carried out using Biacore T100 (GE Healthcare). HBS-EP+ (GE Healthcare) was used as the running buffer, and the measurement temperature was set to 25° C. Chips produced by immobilizing the antigen peptide by the amine coupling method to a Series S Sencor Chip CM5 (GE Healthcare), or alternatively, chips produced by allowing preliminarily biotinylated antigen peptides to interact with and immobilize onto a Series S Sensor Chip SA (certified) (GE Healthcare) were used. Antibodies of interest were captured onto an antigen peptide-immobilized chip, and allowed to interact to each FcγR diluted with running buffer. To regenerate and repeatedly use the chip, the antibodies captured on the chip were washed off by reacting 10 mM glycine-HCl, pH 1.5.

[2] = molecular target: T2, FcγRIIa H (FcγRIIa type H, His at …); assay: as above
Description: as §1, §2

[3] = molecular target: T3, FcγRIIb (extracellular domain, …); assay: SPR (Biacore), antibody captured on antigen-peptide chip, FcγR as analyte; relative binding amount
Description: as §1, §2

[4] = molecular target: T4, FcγRIIa R (extracellular domain, …); assay: as above
Description: as §1, §2

| Binder | He/Con_2b (relative binding activity) [1] | He/Con_2aH (relative binding activity) [2] | He/Con_2b [3] | He/Con_2aR [4] |
| --- | --- | --- | --- | --- |
| GpH7-A5/GpH7-B3 variant K326_03V/GpL16-k0 (antibody, human IgG1, kappa, Heterodimerized IgG1 (He Ab); mutation only in the GpH7-B3 chain; also called He Ab K326V) heavy 1: not shown heavy 2: not shown light: DIVMTQSPLSLPVTPGEPASISCQASESLVHSNRNTYLHWYLQKPGQSPQLLIYKVSNRFSGVPDRFSGSGSGTDFTLKISRVEAEDVGVYYCSQNTHVPPTFGQGTKVEIERTVAAPSVFIFPPSDEQLKSGTASVVCLLNNFYPREAKVQWKVDNALQSGNSQESVTEQDSKDSTYSLSSTLTLSKADYEKHKVYACEVTHQGLSSPVTKSFNRGEC | 175 % of control | 97 % of control |  |  |
| GpH7-A5/GpH7-B3 variant P271_10E/GpL16-k0 (antibody, human IgG1, kappa, Heterodimerized IgG1 (He Ab); mutation only in the GpH7-B3 chain; also called He Ab P271E) heavy 1: not shown heavy 2: not shown light: DIVMTQSPLSLPVTPGEPASISCQASESLVHSNRNTYLHWYLQKPGQSPQLLIYKVSNRFSGVPDRFSGSGSGTDFTLKISRVEAEDVGVYYCSQNTHVPPTFGQGTKVEIERTVAAPSVFIFPPSDEQLKSGTASVVCLLNNFYPREAKVQWKVDNALQSGNSQESVTEQDSKDSTYSLSSTLTLSKADYEKHKVYACEVTHQGLSSPVTKSFNRGEC | 109 % of control | 63.1 % of control |  |  |
| GpH7-A5/GpH7-B3 variant H268_20W/GpL16-k0 (antibody, human IgG1, kappa, Heterodimerized IgG1 (He Ab); mutation only in the GpH7-B3 chain; also called He Ab H268W) heavy 1: not shown heavy 2: not shown light: DIVMTQSPLSLPVTPGEPASISCQASESLVHSNRNTYLHWYLQKPGQSPQLLIYKVSNRFSGVPDRFSGSGSGTDFTLKISRVEAEDVGVYYCSQNTHVPPTFGQGTKVEIERTVAAPSVFIFPPSDEQLKSGTASVVCLLNNFYPREAKVQWKVDNALQSGNSQESVTEQDSKDSTYSLSSTLTLSKADYEKHKVYACEVTHQGLSSPVTKSFNRGEC | 111 % of control | 95.8 % of control |  |  |
| GpH7-A5/GpH7-B3 variant T335_12R/GpL16-k0 (antibody, human IgG1, kappa, Heterodimerized anti-glypican-3 IgG1; alteration in only one H chain (GpH7-B3 side); also called He Ab) heavy 1: not shown heavy 2: not shown light: DIVMTQSPLSLPVTPGEPASISCQASESLVHSNRNTYLHWYLQKPGQSPQLLIYKVSNRFSGVPDRFSGSGSGTDFTLKISRVEAEDVGVYYCSQNTHVPPTFGQGTKVEIERTVAAPSVFIFPPSDEQLKSGTASVVCLLNNFYPREAKVQWKVDNALQSGNSQESVTEQDSKDSTYSLSSTLTLSKADYEKHKVYACEVTHQGLSSPVTKSFNRGEC |  |  | 91.9 % of control (GpH7-A5/GpH7-B3/GpL16-k0 = 100) | 100 % of control (GpH7-A5/GpH7-B3/GpL16-k0 = 100) |
| GpH7-A5/GpH7-B3 variant P271_09D/GpL16-k0 (antibody, human IgG1, kappa, Heterodimerized IgG1 (He Ab); mutation only in the GpH7-B3 chain; also called He Ab P271D) heavy 1: not shown heavy 2: not shown light: DIVMTQSPLSLPVTPGEPASISCQASESLVHSNRNTYLHWYLQKPGQSPQLLIYKVSNRFSGVPDRFSGSGSGTDFTLKISRVEAEDVGVYYCSQNTHVPPTFGQGTKVEIERTVAAPSVFIFPPSDEQLKSGTASVVCLLNNFYPREAKVQWKVDNALQSGNSQESVTEQDSKDSTYSLSSTLTLSKADYEKHKVYACEVTHQGLSSPVTKSFNRGEC | 120 % of control | 70.1 % of control |  |  |
| GpH7-A5/GpH7-B3 variant K326_05P/GpL16-k0 (antibody, human IgG1, kappa, Heterodimerized IgG1 (He Ab); mutation only in the GpH7-B3 chain; also called He Ab K326P) heavy 1: not shown heavy 2: not shown light: DIVMTQSPLSLPVTPGEPASISCQASESLVHSNRNTYLHWYLQKPGQSPQLLIYKVSNRFSGVPDRFSGSGSGTDFTLKISRVEAEDVGVYYCSQNTHVPPTFGQGTKVEIERTVAAPSVFIFPPSDEQLKSGTASVVCLLNNFYPREAKVQWKVDNALQSGNSQESVTEQDSKDSTYSLSSTLTLSKADYEKHKVYACEVTHQGLSSPVTKSFNRGEC | 126 % of control | 98.8 % of control |  |  |

More lines, now with the values ahead:

| He/Con_2b (relative binding activity) [1] | He/Con_2aH (relative binding activity) [2] | He/Con_2b [3] | He/Con_2aR [4] | Binder |
| --- | --- | --- | --- | --- |
| 103 % of control | 86.7 % of control |  |  | GpH7-A5/GpH7-B3 variant P271_08L/GpL16-k0 (antibody, human IgG1, kappa, Heterodimerized IgG1 (He Ab); mutation only in the GpH7-B3 chain; also called He Ab P271L) heavy 1: not shown heavy 2: not shown light: DIVMTQSPLSLPVTPGEPASISCQASESLVHSNRNTYLHWYLQKPGQSPQLLIYKVSNRFSGVPDRFSGSGSGTDFTLKISRVEAEDVGVYYCSQNTHVPPTFGQGTKVEIERTVAAPSVFIFPPSDEQLKSGTASVVCLLNNFYPREAKVQWKVDNALQSGNSQESVTEQDSKDSTYSLSSTLTLSKADYEKHKVYACEVTHQGLSSPVTKSFNRGEC |
| 155 % of control | 97 % of control |  |  | GpH7-A5/GpH7-B3 variant K326_04F/GpL16-k0 (antibody, human IgG1, kappa, Heterodimerized IgG1 (He Ab); mutation only in the GpH7-B3 chain; also called He Ab K326F) heavy 1: not shown heavy 2: not shown light: DIVMTQSPLSLPVTPGEPASISCQASESLVHSNRNTYLHWYLQKPGQSPQLLIYKVSNRFSGVPDRFSGSGSGTDFTLKISRVEAEDVGVYYCSQNTHVPPTFGQGTKVEIERTVAAPSVFIFPPSDEQLKSGTASVVCLLNNFYPREAKVQWKVDNALQSGNSQESVTEQDSKDSTYSLSSTLTLSKADYEKHKVYACEVTHQGLSSPVTKSFNRGEC |

— patent US20180155451A1 (published 2018)
